Data reported in article PMC4397963, “Phospho-Tyrosine(s) vs. Phosphatidylinositol Binding in Shc Mediated Integrin Signaling” (American journal of molecular biology, 2015).
Entries after “also recorded” stand apart in the source; their conditions may differ. Where no end group is shown, it is not given here. [ ]: non-standard residue; d: D form. pY = N[C@@H](Cc1ccc(OP(=O)(O)O)cc1)C(=O)O

Tests used:
[1] = biological target: T1, full length Shc (1 – 473) (Homo sapiens, UniProt P29353); test: ITC binding to full length Shc; conditions: full length Shc, 12°C and 25°C
T1 construct: The vector of pET28a-full length Shc (1 – 473), generously provided by Dr. Ladbury; His-tag (N); made in house; host or cells: E. coli BL21 (DE3), pET28a (vector a gift from Dr. Ladbury)
T1 sequence (P29353 1-473 isoform P29353-2): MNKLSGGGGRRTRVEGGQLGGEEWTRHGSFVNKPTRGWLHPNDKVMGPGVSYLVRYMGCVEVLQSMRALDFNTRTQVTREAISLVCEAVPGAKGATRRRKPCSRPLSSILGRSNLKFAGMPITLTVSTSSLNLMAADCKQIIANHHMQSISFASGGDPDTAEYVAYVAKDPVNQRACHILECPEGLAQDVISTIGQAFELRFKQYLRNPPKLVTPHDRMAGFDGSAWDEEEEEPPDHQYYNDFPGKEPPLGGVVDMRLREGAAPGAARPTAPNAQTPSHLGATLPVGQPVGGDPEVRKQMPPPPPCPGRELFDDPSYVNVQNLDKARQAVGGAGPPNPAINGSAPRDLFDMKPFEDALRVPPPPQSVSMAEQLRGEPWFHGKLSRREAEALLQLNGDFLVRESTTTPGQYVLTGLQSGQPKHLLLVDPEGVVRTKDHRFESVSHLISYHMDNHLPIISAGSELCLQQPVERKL
Experimental: (§1) The Shc PTB domain (17 – 207) containing the pET15b vector was transformed into a Rosetta (DE3) cell line to pursue optimal expression levels. SH2 domain (380 – 473) was cloned into NdeI and XhoI sites in pET21b vector and then transformed into a BL21 (DE3) cell line. The vector of pET28a-full length Shc (1 – 473), generously provided by Dr. Ladbury (University of Texas MD Anderson Cancer Center, TX), was expressed in a BL21 (DE3) cell line as well. Typically, 10 ml overnight culture was used to inoculate 1 liter LB broth. Cells were grown at 37°C until OD600 reached 0.6. At this point the culture was cooled to room temperature and then the overnight overexpression was induced by 1 mM isopropyl-β-D-thiogalactopyranoside. Harvested cells were kept at −20°C for future purification or resuspended in lysis buffer supplemented with protease inhibitors. Cells were further lysed by french press and the cell debris was removed by centrifugation at 18,000 rpm at 4°C. […] The overexpression of the target protein and the purified protein were confirmed by SDS-PAGE and the bands of the expected mass were observed. […]
(§2) Calorimetric measurements of a full length Shc, PTB domain, and SH2 domain to β3 phosphopeptides or PtdIns were performed on a low volume Nano ITC (TA Instruments). […] The concentration of protein samples was determined by UV measurements. […]

[2] = test system: Shc SH2 domain (380 – 473); test: ITC (and other) binding to Shc SH2 domain; conditions: 12°C and 25°C
Experimental: as §1, §2

[3] = biological target: T2, Shc PTB domain (17 – 207) (Homo sapiens, UniProt P29353); test: ITC binding to Shc PTB domain; conditions: Shc PTB domain, 12°C and 25°C, several buffers incl. 50 mM Tris pH 8.0, 200 mM NaCl, 1 mM Dithiothreitol
T2 construct: The Shc PTB domain (17 – 207) containing the pET15b vector was transformed into a Rosetta (DE3) cell line; His-tag (N); made in house; host or cells: E. coli Rosetta (DE3), pET15b
T2 sequence (P29353 17-207 isoform P29353-2): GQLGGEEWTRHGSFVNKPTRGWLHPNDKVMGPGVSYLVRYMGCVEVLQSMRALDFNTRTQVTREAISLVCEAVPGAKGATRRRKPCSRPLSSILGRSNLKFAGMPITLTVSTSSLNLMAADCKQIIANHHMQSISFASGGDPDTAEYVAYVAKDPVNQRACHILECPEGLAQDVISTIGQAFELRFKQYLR
Experimental: The Shc PTB domain (17 – 207) containing the pET15b vector was transformed into a Rosetta (DE3) cell line to pursue optimal expression levels. SH2 domain (380 – 473) was cloned into NdeI and XhoI sites in pET21b vector and then transformed into a BL21 (DE3) cell line. The vector of pET28a-full length Shc (1 – 473), generously provided by Dr. Ladbury (University of Texas MD Anderson Cancer Center, TX), was expressed in a BL21 (DE3) cell line as well. Typically, 10 ml overnight culture was used to inoculate 1 liter LB broth. Cells were grown at 37°C until OD600 reached 0.6. At this point the culture was cooled to room temperature and then the overnight overexpression was induced by 1 mM isopropyl-β-D-thiogalactopyranoside. Harvested cells were kept at −20°C for future purification or resuspended in lysis buffer supplemented with protease inhibitors. Cells were further lysed by french press and the cell debris was removed by centrifugation at 18,000 rpm at 4°C. […] The overexpression of the target protein and the purified protein were confirmed by SDS-PAGE and the bands of the expected mass were observed. The determination of protein concentration by UV measurement was consistent with Bradford assay.
Calorimetric measurements of a full length Shc, PTB domain, and SH2 domain to β3 phosphopeptides or PtdIns were performed on a low volume Nano ITC (TA Instruments). All experiments were carried out in a buffer of 50 mM Tris, pH 7.5, 100 mM NaCl, 5 mM β-mercaptoethanol (unless described otherwise) at 12°C or 25°C with a stirring speed of 250 rpm to minimize the precipitation of the protein. 300 second time intervals were set between injections. The concentration of protein samples was determined by UV measurements. The titrants (β3 phosphopeptides or PtdIns) were prepared in the same buffer by the dilution of higher concentration stocks. The concentrations of the protein ranged from 30 μM to 150 μM. The concentration of protein was examined after each ITC experiment by UV to ensure the stability of proteins under the test condition. The analysis of the data was done with Nano Analyze Software (TA Instruments) suite using an “independent” model.

[4] = biological target: full length Shc; conditions: ref [21], cited from earlier work
Description: Since their discovery about two decades ago, PTB domains have been identified and structurally characterized within numerous multi-domain proteins. The ways they interact with their targets are strikingly versatile. The phosphorylated tyrosine is not always required for the high affinity interactions, and, in some cases, the binding motif might not even contain the tyrosine residue at all. PTB domains in general are also famous for the significant variance in their ligand binding affinities, ranging from 0.1 to 100 μM [17]. […] We were greatly surprised that we were not able to reproduce the data reported by George and co-workers, who have reported a tight dissociation constant (Kd of 0.7 μM) for the full length Shc. […] The conditions we tested include: i) Shc PTB domain at 12°C and 25°C in several different buffers (including exactly th ...

[5] = test system: apo Shc PTB domain; test: 15N-HSQC NMR titration of apo Shc PTB domain; format: binding; conditions: 15N-labelled apo PTB 100 – 200 μM, 50 mM Tris pH 7.5, 100 mM NaCl, 35°C; lipid to protein up to 15 to 1 (Ins(1,4,5)P3), 5 to 1 (PtdIns(4,5)P2)
Experimental: ^15N-labelled recombinant proteins were overexpressed in M9 medium supplemented with ^15NH4Cl as the sole nitrogen source. The same purification procedures as described above were followed. NMR samples of 100 – 200 μM were prepared in a buffer of 50 mM Tris, pH 7.5, 100 mM NaCl, 5 mM β-mercaptoethanol, 7% D2O, 1 mM 4,4-dimethyl-4-silapentane-1-sulfonic acid as the internal standard. ^15N-HSQC titration experiments were performed on a Varian/Agilent Inova 600 MHz spectrometer equipped with inverse-triple resonance cryo-probe at 35°C. All spectra were processed with NMRPipe and analyzed in CCPNmr Analysis software suite.
To find out the molecular details of these weak Shc-PtdIns interactions, we next employed NMR and performed ^15N-HSQC chemical shifts mapping experiments which are especially useful to define weak binding. […] Chemical shift perturbations, associated with the probes binding, were monitored. Overall, the observed shifts in Shc PTB resonance frequencies were small. However, they were concentration dependent, reproducible, and similar among the two PtdIns tested. […] The close-ups of 15N-HSQC spectra of PTB in the presence of PtdIns(4,5)P2, exemplifying the most shifted resonances, are shown in Figure 2. […] The first one, represented by the residues Q^148, S^149 and A^168, overlaps with the classical phosphotyrosine binding pocket of the protein-peptide binary complex. However, the canonical PTB fold cannot be formed without the stabilizing hydrophobic residue (pY-5) of the target peptide. Thus, in apo PTB domain Ins(1,4,5)P3 could only establish intermediate dynamic contacts with the amine functional groups of R^67 or Q^148 side chains. The second binding site, including the residues L^63, Q^76 and S^107, is formed at the interface of the second helix, the loop connecting the first beta strand with the second helix and the beginning of the second beta strand. This second PtdIns binding site is distinct from the second novel phosphotyrosine binding site we previously described for Shc PTB-bi-β3 complex, although it includes several overlapping residues. […]

[6] = biological target: T3, Shc PTB domain (17 – 207) (UniProt P29353-2 17-207); test: ITC; Nano ITC; β3 phosphopeptide titrated into the Shc protein over-saturated by Ins(1,4,5)P3 at 3 to 1 lipid to protein ratio; 12°C; conditions: both partners purified
T3 construct: Shc adaptor protein (p52 isoform), PTB domain, residues 17-207, from a pET15b vector; numbers count on: the p52 isoform (full length 1-473); 15N-labelled (M9 medium with 15NH4Cl) for the NMR experiments; Monomeric on Superdex-75; also called apo PTB domain; source: E. coli Rosetta (DE3), purified (Ni-NTA, Superdex-75)
T3 sequence (looked up): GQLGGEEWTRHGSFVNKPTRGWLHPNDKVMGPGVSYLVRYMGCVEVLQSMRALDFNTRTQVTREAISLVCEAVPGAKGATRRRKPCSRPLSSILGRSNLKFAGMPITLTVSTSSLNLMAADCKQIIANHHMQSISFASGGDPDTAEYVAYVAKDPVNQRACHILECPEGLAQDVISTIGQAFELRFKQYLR

[7] = biological target: T4, full length Shc (1 – 473) (UniProt P29353-2 1-473); test: as above; conditions: both partners purified
T4 construct: Shc adaptor protein, full length 1-473 (printed length 473 residues, the p52 isoform), from a pET28a vector provided by Dr. Ladbury; numbers count on: the p52 isoform; Monomeric on Superdex-75; also called Shc full length; p52 Shc; source: E. coli BL21 (DE3), purified (Ni-NTA, Superdex-75)
T4 sequence (looked up): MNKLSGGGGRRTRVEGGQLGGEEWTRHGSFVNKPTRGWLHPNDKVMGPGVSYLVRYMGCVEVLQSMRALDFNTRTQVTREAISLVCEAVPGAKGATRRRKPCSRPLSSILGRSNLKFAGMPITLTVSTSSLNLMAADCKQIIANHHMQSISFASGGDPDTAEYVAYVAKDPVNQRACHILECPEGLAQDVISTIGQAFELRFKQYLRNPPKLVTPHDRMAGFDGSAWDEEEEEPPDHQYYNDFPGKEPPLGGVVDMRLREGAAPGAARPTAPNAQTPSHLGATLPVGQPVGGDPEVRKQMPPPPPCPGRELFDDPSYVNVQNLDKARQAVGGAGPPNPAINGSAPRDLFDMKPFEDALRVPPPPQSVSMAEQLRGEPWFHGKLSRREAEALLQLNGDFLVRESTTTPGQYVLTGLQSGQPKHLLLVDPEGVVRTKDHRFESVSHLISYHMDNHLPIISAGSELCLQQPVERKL

[8] = biological target: T3, Shc PTB domain (17 – 207); test: ITC; Nano ITC; β3 phosphopeptide titrated into the Shc protein (30-150 μM); 12°C; 50 mM Tris, pH 7.5, 100 mM NaCl, 5 mM β-mercaptoethanol; independent model; conditions: both partners purified
[9] = biological target: T3, Shc PTB domain (17 – 207); test: ITC; Nano ITC; β3 phosphopeptide titrated into the Shc protein (30-150 μM); 25°C; 50 mM Tris, pH 7.5, 100 mM NaCl, 5 mM β-mercaptoethanol; independent model; conditions: both partners purified
[10] = biological target: T4, full length Shc (1 – 473); test: as above; conditions: both partners purified
[11] = biological target: T3, Shc PTB domain (17 – 207); test: as above; conditions: both partners purified; remark: listed apart in the source
[12] = biological target: T4, full length Shc (1 – 473); test: as above; conditions: both partners purified; remark: listed apart in the source
[13] = biological target: T3, Shc PTB domain (17 – 207); test: ITC; Nano ITC; β3 phosphopeptide titrated into the Shc protein (30-150 μM); 12°C; 50 mM Tris, pH 7.5, 100 mM NaCl, 5 mM β-mercaptoethanol; independent model; conditions: both partners purified; remark: listed apart in the source
[14] = biological target: T4, full length Shc (1 – 473); test: as above; conditions: both partners purified

## O=P(O)(O)O[C@@H]1[C@H](O)[C@H](O)[C@@H](OP(=O)(O)O)[C@H](OP(=O)(O)O)[C@H]1O [Ins(1,4,5)P3, D-myo-Inositol-1,4,5-triphosphate]
[1]
  binding by ITC: No binding was found; also recorded: does not
[2]
  binding by ITC: No binding was found; also recorded: does not show to bind
[3]
  binding by ITC: No binding was found; also recorded: minimal Shc PTB binding; also recorded: does not show to bind
[4]; 50 mM Tris, pH 8.0, 200 mM NaCl, 1 mM Dithiothreitol
  Kd: 0.7 µM
[4]
  relative binding strength: much tighter than the binding of the isolated Shc PTB domain alone to PtdIns(4,5)P2
[5]
  15N-HSQC chemical shift perturbations: minimal chemical shift perturbations for a handful of residues; also recorded: less pronounced compared to PtdIns(4,5)P2

B1: bi-β3: β3 integrin derived bi-phosphorylated (Y747 and Y759) peptide (peptide)
peptide: RAKWDTANNPL[pY]KEATSTFTNIT[pY]RGT
notes: integrin β3 cytoplasmic tail, residues 736-762, both tyrosines phosphorylated; also called bi-phosphorylated β3 cytoplasmic tail peptide; source: synthetic peptide (NEO-Peptide)
[6]
  Kd: 3.65 µM
  dH: -2.96 kcal/mol
[7]
  Kd: 4.38 µM
  dH: -3.32 kcal/mol
[8]
  stoichiometry N: 1 ± 0.15
[9]
  Kd: 5.14 µM
  dH: -5.49 kcal/mol
[10]
  Kd: 2.84 µM
  dH: -6.89 kcal/mol
[11]
  stoichiometry N: ~1
[12]
  stoichiometry N: 1 ± 0.15
[13]
  Kd: 4.32 µM
  dH: -2.75 kcal/mol
[14]
  Kd: 5.21 µM
  dH: -3.89 kcal/mol
